Assay results as given in patent US20200079833A1 (AstraZeneca / MedImmune, published 2020).
Starred links: 1 amine or outer side, 2 acyl side, 3 side chain; linkers in the order of their positions; H or OH if unused. Non-standard residues stand in square brackets, D forms with d. Groups on a side chain read outwards from the residue. Primed or numbered codes have the meaning given here. No end group written: not given here. *: point of attachment. γGlu = O=C(O)[C@H](CCC(=O)[*:2])N[*:1]; Stearoyl = CCCCCCCCCCCCCCCCCC(=O)*; αMeF = C[C@](N)(Cc1ccccc1)C(=O)O; αMeK = C[C@](N)(CCCCN)C(=O)O; Lauroyl = CCCCCCCCCCCC(=O)*; αMeS = C[C@](N)(CO)C(=O)O; PEG2′ = not defined here; Aib = CC(C)(N)C(=O)O

T1: glucose-dependent insulinotropic peptide (gastric inhibitory polypeptide) receptor (GIPR) (human, UniProt P48546 22-466)
T1 sequence (looked up): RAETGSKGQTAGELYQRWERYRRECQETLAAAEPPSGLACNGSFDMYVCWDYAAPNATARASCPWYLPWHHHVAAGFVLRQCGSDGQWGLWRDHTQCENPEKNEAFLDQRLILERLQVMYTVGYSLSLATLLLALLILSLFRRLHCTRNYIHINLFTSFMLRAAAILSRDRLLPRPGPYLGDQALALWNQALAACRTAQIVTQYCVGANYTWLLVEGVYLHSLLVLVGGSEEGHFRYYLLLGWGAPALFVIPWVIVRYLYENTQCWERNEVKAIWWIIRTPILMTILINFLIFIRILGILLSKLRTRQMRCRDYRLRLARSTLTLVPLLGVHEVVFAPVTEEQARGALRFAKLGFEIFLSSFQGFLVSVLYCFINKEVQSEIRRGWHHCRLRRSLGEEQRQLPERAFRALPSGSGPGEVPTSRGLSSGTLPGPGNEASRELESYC

T2: glucose-dependent insulinotropic peptide (gastric inhibitory polypeptide) receptor (GIPR), primary cAMP assay … (human, UniProt P48546 22-466)
T2 sequence (looked up): T1 sequence (looked up)

B1: SEQ ID NO 155 (peptide)
peptide: H[Aib]EGS[αMeF]TSDV[αMeS]S[αMeF]LEGEAAK([γGlu-Stearoyl])E[αMeF]IA[αMeF]VV[αMeK]GG-NH2
modifications: N-terminus assumed
SMILES: CCCCCCCCCCCCCCCCCC(=O)N[C@@H](CCC(=O)NCCCC[C@H](NC(=O)[C@H](C)NC(=O)[C@H](C)NC(=O)[C@H](CCC(=O)O)NC(=O)CNC(=O)[C@H](CCC(=O)O)NC(=O)[C@H](CC(C)C)NC(=O)[C@](C)(Cc1ccccc1)NC(=O)[C@H](CO)NC(=O)[C@](C)(CO)NC(=O)[C@@H](NC(=O)[C@H](CC(=O)O)NC(=O)[C@H](CO)NC(=O)[C@@H](NC(=O)[C@](C)(Cc1ccccc1)NC(=O)[C@H](CO)NC(=O)CNC(=O)[C@H](CCC(=O)O)NC(=O)C(C)(C)NC(=O)[C@@H](N)Cc1c[nH]cn1)[C@@H](C)O)C(C)C)C(=O)N[C@@H](CCC(=O)O)C(=O)N[C@@](C)(Cc1ccccc1)C(=O)N[C@H](C(=O)N[C@@H](C)C(=O)N[C@@](C)(Cc1ccccc1)C(=O)N[C@H](C(=O)N[C@H](C(=O)N[C@@](C)(CCCCN)C(=O)NCC(=O)NCC(N)=O)C(C)C)C(C)C)[C@@H](C)CC)C(=O)O
B2: SEQ ID NO 154 (peptide)
peptide: H[Aib]EGS[αMeF]TSDV[αMeS]S[αMeF]LEGEAAK([PEG2′-PEG2′-PEG2′-Stearoyl])E[αMeF]IA[αMeF]VV[αMeK]GG-NH2
B3: SEQ ID NO 153 (peptide)
peptide: H[Aib]EGS[αMeF]TSDV[αMeS]S[αMeF]LEGEAAK([PEG2′-PEG2′-Stearoyl])E[αMeF]IA[αMeF]VV[αMeK]GG-NH2
B4: SEQ ID NO: 475 (peptide)
peptide: H[Aib]EGS[αMeF]TSDVSK([PEG2′-PEG2′-γGlu-Lauroyl])YLEK([PEG2′-PEG2′-γGlu-Lauroyl])EAA[αMeK]EFIAFK([PEG2′-PEG2′-γGlu-Lauroyl])VEGG-NH2
B5: SEQ ID NO: 485 (peptide)
peptide: H[Aib]EGS[αMeF]TSDV[αMeS]SYK([PEG2′-PEG2′-γGlu-Lauroyl])EGEK([PEG2′-PEG2′-γGlu-Lauroyl])A[αMeK]EFIAFK([PEG2′-PEG2′-γGlu-Lauroyl])VEGG-NH2
B6: SEQ ID NO: 484 (peptide)
peptide: H[Aib]EGS[αMeF]TSDV[αMeS]SYK([PEG2′-PEG2′-γGlu-Lauroyl])EGK([PEG2′-PEG2′-γGlu-Lauroyl])AA[αMeK]EFIAFK([PEG2′-PEG2′-γGlu-Lauroyl])VEGG-NH2
B7: SEQ ID NO: 476 (peptide)
peptide: H[Aib]EGS[αMeF]TSDVSK([PEG2′-PEG2′-γGlu-Lauroyl])YLEGK([PEG2′-PEG2′-γGlu-Lauroyl])AA[αMeK]EFIAFK([PEG2′-PEG2′-γGlu-Lauroyl])VEGG-NH2

The binders below were run against GLP-1 receptor (GLP-1R) (human, UniProt P43220 24-463) (assay: cell-based or functional assay).

Primary assay EC50 (cAMP), GLP-1R n1 [nM] | Primary assay EC50 (cAMP), GLP-1R n2 [nM] | Primary assay EC50 (cAMP), Mean pM GLP-1R [pM] | Binder
0.29 | 0.19 | 238 | B1
0.0028 | 0.0023 | 2.5 | B2
0.0079 | 0.005 | 6.4 | B3

What follows are binders tested against T1, glucose-dependent insulinotropic … (assay: cell-based or functional assay).

Primary assay EC50 (cAMP), GIP-R, first run [nM] | Primary assay EC50 (cAMP), GIP-R, second run [nM] | Binder
28 | 28 | B1
26 | 26 | B2
27 | 27 | B3

These binders were tested against glucagon receptor (GCGR) (human, UniProt P47871 26-477) (assay: cell-based or functional assay).
Sequence of glucagon receptor (GCGR) (P47871 26-477): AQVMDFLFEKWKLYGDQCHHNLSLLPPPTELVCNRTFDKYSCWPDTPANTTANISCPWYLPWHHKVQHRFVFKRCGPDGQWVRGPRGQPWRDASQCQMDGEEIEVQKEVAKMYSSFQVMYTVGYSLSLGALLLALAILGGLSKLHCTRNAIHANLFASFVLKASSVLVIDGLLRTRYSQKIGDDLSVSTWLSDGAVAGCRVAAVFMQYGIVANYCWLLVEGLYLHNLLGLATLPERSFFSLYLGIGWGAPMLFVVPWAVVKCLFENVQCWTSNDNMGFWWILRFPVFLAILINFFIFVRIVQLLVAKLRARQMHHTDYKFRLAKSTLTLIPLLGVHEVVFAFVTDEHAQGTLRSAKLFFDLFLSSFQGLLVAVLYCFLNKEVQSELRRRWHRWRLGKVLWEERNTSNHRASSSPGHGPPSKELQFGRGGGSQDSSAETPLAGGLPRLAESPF

Primary assay EC50 (cAMP), Gluc-R, first run [nM] | Primary assay EC50 (cAMP), Gluc-R, second run [nM] | Binder
28 | 28 | B1
26 | 26 | B2
27 | 27 | B3

These binders were tested against glucagon receptor (GCGR), primary cAMP assay cell line (human, UniProt P47871 26-477) (assay: cell-based or functional assay).
Sequence of glucagon receptor (GCGR), primary cAMP assay cell line (P47871 26-477): as above

cAMP Primary assay EC50, n1 [nM] | cAMP Primary assay EC50, n2 [nM] | Binder
19.5 | 19.5 | B4
19.6 | 19.6 | B5
19.9 | 19.9 | B6
19.8 | 19.8 | B7

The binders below were run against GLP-1 receptor (GLP-1R), primary cAMP assay cell line (human, UniProt P43220 24-463) (assay: cell-based or functional assay).

cAMP Primary assay EC50, Mean pM GLP-1R [pM] | cAMP Primary assay EC50, n1 [nM] | cAMP Primary assay EC50, n2 [nM] | Binder
288 | 0.228 | 0.347 | B4
196 | 0.167 | 0.224 | B5
166 | 0.163 | 0.168 | B6
216 | 0.174 | 0.257 | B7

Each binder was assayed against T2, glucose-dependent insulinotropic … (assay: cell-based or functional assay).

cAMP Primary assay EC50, n1 [nM] | cAMP Primary assay EC50, n2 [nM] | Binder
19.5 | 19.5 | B4
19.6 | 19.6 | B5
19.9 | 19.9 | B6
19.8 | 19.8 | B7
